Experimental data published in patent US20230183713A1, “SITE-SPECIFIC RECOMBINASES FOR EFFICIENT AND SPECIFIC GENOME EDITING” (TECHNISCHE UNIVERSITÄt DRESDEN, published 2023).

T1: Cre recombinase monomer with Q311R mutation
T1 chain: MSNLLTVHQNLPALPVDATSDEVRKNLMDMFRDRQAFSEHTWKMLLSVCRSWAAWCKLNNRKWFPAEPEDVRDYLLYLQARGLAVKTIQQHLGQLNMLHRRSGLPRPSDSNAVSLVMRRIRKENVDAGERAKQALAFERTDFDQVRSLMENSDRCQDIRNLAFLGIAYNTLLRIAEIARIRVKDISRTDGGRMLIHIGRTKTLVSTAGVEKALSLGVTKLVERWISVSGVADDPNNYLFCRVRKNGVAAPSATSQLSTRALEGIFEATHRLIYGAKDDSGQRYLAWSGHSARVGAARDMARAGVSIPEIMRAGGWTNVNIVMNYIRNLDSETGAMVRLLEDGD

T2: Cre recombinase monomer with K201R mutation
T2 chain: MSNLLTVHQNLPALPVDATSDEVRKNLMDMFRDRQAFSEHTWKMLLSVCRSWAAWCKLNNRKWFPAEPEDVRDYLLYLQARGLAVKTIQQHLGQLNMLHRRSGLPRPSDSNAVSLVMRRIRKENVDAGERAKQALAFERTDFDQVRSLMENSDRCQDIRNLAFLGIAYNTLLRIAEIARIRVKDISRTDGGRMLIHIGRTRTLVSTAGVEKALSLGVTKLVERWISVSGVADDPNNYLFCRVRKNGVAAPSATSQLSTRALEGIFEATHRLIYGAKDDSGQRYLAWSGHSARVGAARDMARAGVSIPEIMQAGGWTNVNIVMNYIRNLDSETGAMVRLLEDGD

T3: Cre recombinase monomer with E176V mutation
T3 chain: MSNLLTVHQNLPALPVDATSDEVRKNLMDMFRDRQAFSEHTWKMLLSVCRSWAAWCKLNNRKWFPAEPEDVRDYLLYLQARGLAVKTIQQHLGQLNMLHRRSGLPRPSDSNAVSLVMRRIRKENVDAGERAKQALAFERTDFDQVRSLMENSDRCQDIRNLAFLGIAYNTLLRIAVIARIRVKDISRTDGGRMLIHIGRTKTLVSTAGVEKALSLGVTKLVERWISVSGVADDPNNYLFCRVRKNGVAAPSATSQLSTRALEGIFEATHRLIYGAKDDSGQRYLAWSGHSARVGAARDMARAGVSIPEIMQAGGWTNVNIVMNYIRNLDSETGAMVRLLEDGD

T4: Cre recombinase monomer with E176H mutation
T4 chain: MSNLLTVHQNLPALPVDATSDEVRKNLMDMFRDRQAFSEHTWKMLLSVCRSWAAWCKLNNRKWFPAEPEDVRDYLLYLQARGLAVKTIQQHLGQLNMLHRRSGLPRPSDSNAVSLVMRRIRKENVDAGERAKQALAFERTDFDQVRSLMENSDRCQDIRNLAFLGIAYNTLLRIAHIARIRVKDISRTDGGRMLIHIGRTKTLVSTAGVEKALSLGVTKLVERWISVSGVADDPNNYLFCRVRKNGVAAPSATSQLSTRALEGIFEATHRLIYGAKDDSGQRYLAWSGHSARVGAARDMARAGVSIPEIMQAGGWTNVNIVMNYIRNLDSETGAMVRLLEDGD


Experiments:
[1] = target: T1, Cre recombinase monomer with Q311R …
[2] = target: T2, Cre recombinase monomer with K201R …
[3] = target: T3, Cre recombinase monomer with E176V …
[4] = target: T4, Cre recombinase monomer with E176H …

Protein | Median dimer activity (recombination on loxP) [1] [%] | Median dimer activity (recombination on loxP) [2] [%] | Median dimer activity (recombination on loxP) [3] [%] | Median dimer activity (recombination on loxP) [4] [%]
Cre recombinase monomer with E176Y mutation (protein) MSNLLTVHQNLPALPVDATSDEVRKNLMDMFRDRQAFSEHTWKMLLSVCRSWAAWCKLNNRKWFPAEPEDVRDYLLYLQARGLAVKTIQQHLGQLNMLHRRSGLPRPSDSNAVSLVMRRIRKENVDAGERAKQALAFERTDFDQVRSLMENSDRCQDIRNLAFLGIAYNTLLRIAYIARIRVKDISRTDGGRMLIHIGRTKTLVSTAGVEKALSLGVTKLVERWISVSGVADDPNNYLFCRVRKNGVAAPSATSQLSTRALEGIFEATHRLIYGAKDDSGQRYLAWSGHSARVGAARDMARAGVSIPEIMQAGGWTNVNIVMNYIRNLDSETGAMVRLLEDGD | 79 | 39 |  | 
Cre recombinase monomer with K201A mutation (protein) MSNLLTVHQNLPALPVDATSDEVRKNLMDMFRDRQAFSEHTWKMLLSVCRSWAAWCKLNNRKWFPAEPEDVRDYLLYLQARGLAVKTIQQHLGQLNMLHRRSGLPRPSDSNAVSLVMRRIRKENVDAGERAKQALAFERTDFDQVRSLMENSDRCQDIRNLAFLGIAYNTLLRIAEIARIRVKDISRTDGGRMLIHIGRTATLVSTAGVEKALSLGVTKLVERWISVSGVADDPNNYLFCRVRKNGVAAPSATSQLSTRALEGIFEATHRLIYGAKDDSGQRYLAWSGHSARVGAARDMARAGVSIPEIMQAGGWTNVNIVMNYIRNLDSETGAMVRLLEDGD | 95 | 64 |  | 
Cre recombinase monomer with R292W mutation (protein) MSNLLTVHQNLPALPVDATSDEVRKNLMDMFRDRQAFSEHTWKMLLSVCRSWAAWCKLNNRKWFPAEPEDVRDYLLYLQARGLAVKTIQQHLGQLNMLHRRSGLPRPSDSNAVSLVMRRIRKENVDAGERAKQALAFERTDFDQVRSLMENSDRCQDIRNLAFLGIAYNTLLRIAEIARIRVKDISRTDGGRMLIHIGRTKTLVSTAGVEKALSLGVTKLVERWISVSGVADDPNNYLFCRVRKNGVAAPSATSQLSTRALEGIFEATHRLIYGAKDDSGQRYLAWSGHSAWVGAARDMARAGVSIPEIMQAGGWTNVNIVMNYIRNLDSETGAMVRLLEDGD | 88 |  |  | 
Cre recombinase monomer with R173A mutation (protein) MSNLLTVHQNLPALPVDATSDEVRKNLMDMFRDRQAFSEHTWKMLLSVCRSWAAWCKLNNRKWFPAEPEDVRDYLLYLQARGLAVKTIQQHLGQLNMLHRRSGLPRPSDSNAVSLVMRRIRKENVDAGERAKQALAFERTDFDQVRSLMENSDRCQDIRNLAFLGIAYNTLLAIAEIARIRVKDISRTDGGRMLIHIGRTKTLVSTAGVEKALSLGVTKLVERWISVSGVADDPNNYLFCRVRKNGVAAPSATSQLSTRALEGIFEATHRLIYGAKDDSGQRYLAWSGHSARVGAARDMARAGVSIPEIMQAGGWTNVNIVMNYIRNLDSETGAMVRLLEDGD | 93 |  |  | 
Cre recombinase monomer with R173D mutation (protein) MSNLLTVHQNLPALPVDATSDEVRKNLMDMFRDRQAFSEHTWKMLLSVCRSWAAWCKLNNRKWFPAEPEDVRDYLLYLQARGLAVKTIQQHLGQLNMLHRRSGLPRPSDSNAVSLVMRRIRKENVDAGERAKQALAFERTDFDQVRSLMENSDRCQDIRNLAFLGIAYNTLLDIAEIARIRVKDISRTDGGRMLIHIGRTKTLVSTAGVEKALSLGVTKLVERWISVSGVADDPNNYLFCRVRKNGVAAPSATSQLSTRALEGIFEATHRLIYGAKDDSGQRYLAWSGHSARVGAARDMARAGVSIPEIMQAGGWTNVNIVMNYIRNLDSETGAMVRLLEDGD | 89 |  | 53 | 29
Cre recombinase monomer with R173E mutation (protein) MSNLLTVHQNLPALPVDATSDEVRKNLMDMFRDRQAFSEHTWKMLLSVCRSWAAWCKLNNRKWFPAEPEDVRDYLLYLQARGLAVKTIQQHLGQLNMLHRRSGLPRPSDSNAVSLVMRRIRKENVDAGERAKQALAFERTDFDQVRSLMENSDRCQDIRNLAFLGIAYNTLLEIAEIARIRVKDISRTDGGRMLIHIGRTKTLVSTAGVEKALSLGVTKLVERWISVSGVADDPNNYLFCRVRKNGVAAPSATSQLSTRALEGIFEATHRLIYGAKDDSGQRYLAWSGHSARVGAARDMARAGVSIPEIMQAGGWTNVNIVMNYIRNLDSETGAMVRLLEDGD | 80 |  |  | 32
Cre recombinase monomer with R173K mutation (protein) MSNLLTVHQNLPALPVDATSDEVRKNLMDMFRDRQAFSEHTWKMLLSVCRSWAAWCKLNNRKWFPAEPEDVRDYLLYLQARGLAVKTIQQHLGQLNMLHRRSGLPRPSDSNAVSLVMRRIRKENVDAGERAKQALAFERTDFDQVRSLMENSDRCQDIRNLAFLGIAYNTLLKIAEIARIRVKDISRTDGGRMLIHIGRTKTLVSTAGVEKALSLGVTKLVERWISVSGVADDPNNYLFCRVRKNGVAAPSATSQLSTRALEGIFEATHRLIYGAKDDSGQRYLAWSGHSARVGAARDMARAGVSIPEIMQAGGWTNVNIVMNYIRNLDSETGAMVRLLEDGD | 84 |  |  | 
Cre recombinase monomer with R173V mutation (protein) MSNLLTVHQNLPALPVDATSDEVRKNLMDMFRDRQAFSEHTWKMLLSVCRSWAAWCKLNNRKWFPAEPEDVRDYLLYLQARGLAVKTIQQHLGQLNMLHRRSGLPRPSDSNAVSLVMRRIRKENVDAGERAKQALAFERTDFDQVRSLMENSDRCQDIRNLAFLGIAYNTLLVIAEIARIRVKDISRTDGGRMLIHIGRTKTLVSTAGVEKALSLGVTKLVERWISVSGVADDPNNYLFCRVRKNGVAAPSATSQLSTRALEGIFEATHRLIYGAKDDSGQRYLAWSGHSARVGAARDMARAGVSIPEIMQAGGWTNVNIVMNYIRNLDSETGAMVRLLEDGD | 92 |  | 53 | 
Cre recombinase monomer with R173Y mutation (protein) MSNLLTVHQNLPALPVDATSDEVRKNLMDMFRDRQAFSEHTWKMLLSVCRSWAAWCKLNNRKWFPAEPEDVRDYLLYLQARGLAVKTIQQHLGQLNMLHRRSGLPRPSDSNAVSLVMRRIRKENVDAGERAKQALAFERTDFDQVRSLMENSDRCQDIRNLAFLGIAYNTLLYIAEIARIRVKDISRTDGGRMLIHIGRTKTLVSTAGVEKALSLGVTKLVERWISVSGVADDPNNYLFCRVRKNGVAAPSATSQLSTRALEGIFEATHRLIYGAKDDSGQRYLAWSGHSARVGAARDMARAGVSIPEIMQAGGWTNVNIVMNYIRNLDSETGAMVRLLEDGD | 92 |  | 35 | 
Cre recombinase monomer with E176L mutation (protein) MSNLLTVHQNLPALPVDATSDEVRKNLMDMFRDRQAFSEHTWKMLLSVCRSWAAWCKLNNRKWFPAEPEDVRDYLLYLQARGLAVKTIQQHLGQLNMLHRRSGLPRPSDSNAVSLVMRRIRKENVDAGERAKQALAFERTDFDQVRSLMENSDRCQDIRNLAFLGIAYNTLLRIALIARIRVKDISRTDGGRMLIHIGRTKTLVSTAGVEKALSLGVTKLVERWISVSGVADDPNNYLFCRVRKNGVAAPSATSQLSTRALEGIFEATHRLIYGAKDDSGQRYLAWSGHSARVGAARDMARAGVSIPEIMQAGGWTNVNIVMNYIRNLDSETGAMVRLLEDGD | 40 |  |  | 
